{
  "source": "patent US12508302B2",
  "about": "“Pharmaceutical composition providing mucolytic effect” (FRIMLINE PRIVATE LIMITED, priority 2022, dated 2025)",
  "molecules": {"B1": {"name": "Lactoferrin (protein, UniProt P02788 20-710, looked up)", "Lactotransferrin": "GRRRSVQWCAVSQPEATKCFQWQRNMRKVRGPPVSCIKRDSPIQCIQAIAENRADAVTLDGGFIYEAGLAPYKLRPVAAEVYGTERQPRTHYYAVAVVKKGGSFQLNELQGLKSCHTGLRRTAGWNVPIGTLRPFLNWTGPPEPIEAAVARFFSASCVPGADKGQFPNLCRLCAGTGENKCAFSSQEPYFSYSGAFKCLRDGAGDVAFIRESTVFEDLSDEAERDEYELLCPDNTRKPVDKFKDCHLARVPSHAVVARSVNGKEDAIWNLLRQAQEKFGKDKSPKFQLFGSPSGQKDLLFKDSAIGFSRVPPRIDSGLYLGSGYFTAIQNLRKSEEEVAARRARVVWCAVGEQELRKCNQWSGLSEGSVTCSSASTTEDCIALVLKGEADAMSLDGGYVYTAGKCGLVPVLAENYKSQQSSDPDPNCVDRPVEGYLAVAVVRRSDTSLTWNSVKGKKSCHTAVDRTAGWNIPMGLLFNQTGSCKFDEYFSQSCAPGSDPRSNLCALCIGDEQGENKCVPNSNERYYGYTGAFRCLAENAGDVAFVKDVTVLQNTDGNNNEAWAKDLKLADFALLCLDGKRKPVTEARSCHLAMAPNHAVVSRMDKVERLKQVLLHQQAKFGRNGSDCPDKFCLFQSETKNLLFNDNTECLARLHGKTTYEKYLGPQYVAGITNLKKCSTSPLLEACEFLRK", "notes": "multifunctional globular glycoprotein of the transferrin family, molecular mass about 80 kDa"}},
  "test_system": "tracheobronchial secretion in rats",
  "test": "Mucolytic activity in rats: tracheobronchial secretion of fluorescein sodium (FINa)",
  "assay_type": "in vivo, rat (Swiss Albino Rats)",
  "settings": "for Percentage (%) Enhancement of FINa secretion compared to Normal: versus normal group (G1)",
  "method": "The effect of the compositions of the present invention was studied in animals. For this study, screening effect of synergistic combination of compositions/formulations comprising N-Acetyl-L-Cysteine, Lactoferrin and additional active ingredients for mucolytic activity in rat was performed. The following trials were carried out:\nEighty-Four (84) rats including male and female (Swiss Albino Rats) divided into 14 groups (6 per group) were maintained in animal house in a light/dark atmosphere based on a 12 hour cycle having temperature and relative humidity in the range of 19 to 25±2° C. and 30-70%, respectively. To maintain the appropriate conditions, temperature and relative humidity were recorded three times daily. All animals were acclimatized for a minimum period of five days. Animals were maintained in the test setup for minimum 30 minutes once during the acclimatization period to reduce the stress. Animals were weighed on the day of receipt and observed daily for abnormalities if any. Detailed records of acclimatization were also maintained. Rats were housed 3 per cage in clean, sterilized Polypropylene cages. During complete experiments, animals were supplied with the standard certified rat pellet feed and drinking water treated by reverse osmosis ad libitum.\nIn order to evaluate the mucolytic activity in rats, eighty-four (84) rats were screened and divided into Fourteen (14) groups. For a comparative analysis, groups were divided and treated as below:\nTracheobronchial secretion in rats, expressed by the amount of fluorescein sodium (FINa) dye excreted into the respiratory tract, was measured by modification of methods published earlier.\nLactoferrin, Carotenoid, N-Acetyl-L-Cysteine or their combinations (G4-G14) were suspended in 1% Acacia. […]\nThe tracheobronchial lavage fluid (4.9±0.1 ml) was centrifuged (3500 rpm for 10 minutes) and the supernatant was transferred to STP B & L tubes. The fluorescence intensity of the supernatant was measured with a Genesys 20 spectrophotometer set at a wavelength of 510 nm (emission).",
  "data": [
    {"molecule": "B1", "values": [
      {"measurement": "Fluorescein Sodium (FINa) Secretion", "setting": "dosed 30 minutes before i.v. FINa 300 mg/kg, tracheobronchial lavage one hour after administration, doses as Table 1, mean±SEM", "result": "1.79 ± 0.04", "unit": "μg/100 g/h"},
      {"measurement": "Percentage (%) Enhancement of FINa secretion compared to Normal", "setting": "doses as Table 1", "result": "25.17 ± 1", "unit": "%"},
      {"measurement": "Percentage (%) Enhancement of FINa secretion compared to Normal", "setting": "doses as Table 1, listed as Lactoferrin", "result": 25.17, "unit": "%"}
    ]}
  ]
}
